Experimental findings from PMC10397247 are described below.

Common to all, as to test: two-hybrid library CCNG1;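 also: natural log of median RNA to DNA barcode read ratio; higher means stronger binding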
One test deals with T1, 4H932-bN.
T1 chain: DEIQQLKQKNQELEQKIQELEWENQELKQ

For the next test, the target named is T2, 4H3297-bN.
T2 chain: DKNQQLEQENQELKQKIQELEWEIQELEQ

In another test the target is T3, 4H730-bN.
T3 chain: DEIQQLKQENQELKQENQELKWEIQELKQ

For the next test, the target named is T4, 4H3381-bN.
T4 chain: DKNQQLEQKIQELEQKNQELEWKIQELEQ

The target in the next test is T5, 4H3364-bN.
T5 chain: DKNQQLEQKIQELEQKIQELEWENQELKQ

A further test has as its target T6, 4H56-bN.
T6 chain: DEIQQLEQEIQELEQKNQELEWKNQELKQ

A further test has as its target T7, 4H796-bN.
T7 chain: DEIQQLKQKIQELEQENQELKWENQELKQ

The target in a further test is T8, 4H949-bN.
T8 chain: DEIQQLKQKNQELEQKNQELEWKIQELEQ

The next test has as its target T9, P1bHq.
T9 chain: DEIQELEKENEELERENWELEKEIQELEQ

A further test concerns the target T10, 4H3041-bN.
T10 chain: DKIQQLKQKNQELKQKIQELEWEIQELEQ

For another test, the target named is T11, 4H349-bN.
T11 chain: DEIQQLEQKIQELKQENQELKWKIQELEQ

The target in the next test is T12, 4H4073-bA.
T12 chain: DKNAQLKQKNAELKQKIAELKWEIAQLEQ

A further test addresses T13, 4H575-bA.
T13 chain: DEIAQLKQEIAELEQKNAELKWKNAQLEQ

The target in the next test is T14, 4H3112-bH.
T14 chain: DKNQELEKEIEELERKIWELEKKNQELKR

The target in another test is T15, 4H2586-bA.
T15 chain: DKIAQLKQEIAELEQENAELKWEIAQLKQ

The next test has as its target T16, 4H2673-bA.
T16 chain: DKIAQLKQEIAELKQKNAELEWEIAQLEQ

The target in the next test is T17, 4H855-bA.
T17 chain: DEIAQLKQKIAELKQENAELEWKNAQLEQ

Another test deals with T18, 4H1831-bA.
T18 chain: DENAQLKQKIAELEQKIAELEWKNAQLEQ

A further test has as its target T19, 4H3926-bA.
T19 chain: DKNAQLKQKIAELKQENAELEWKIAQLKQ

For a further test, the target named is T20, 4H346-bA.
T20 chain: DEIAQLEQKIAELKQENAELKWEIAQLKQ

A further test addresses T21, 4H2697-bA.
T21 chain: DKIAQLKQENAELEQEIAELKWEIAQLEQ

In the next test the target is T22, 4H2627-bA.
T22 chain: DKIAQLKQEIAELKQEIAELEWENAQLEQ

The target in a further test is T23, 4H3010-bA.
T23 chain: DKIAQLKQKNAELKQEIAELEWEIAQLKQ

The next test addresses T24, 4H968-bA.
T24 chain: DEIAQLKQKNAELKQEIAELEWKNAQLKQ

A further test concerns the target T25, 4H3112-bA.
T25 chain: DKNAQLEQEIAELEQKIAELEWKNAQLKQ

A further test has as its target T26, 4H457-bA.
T26 chain: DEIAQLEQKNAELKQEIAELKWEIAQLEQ

For the next test, the target named is T27, 4H953-bA.
T27 chain: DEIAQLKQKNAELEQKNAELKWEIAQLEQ

For the next test, the target named is T28, 4H683-bA.
T28 chain: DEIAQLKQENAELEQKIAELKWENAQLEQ

For a further test, the target named is T29, 4H797-bA.
T29 chain: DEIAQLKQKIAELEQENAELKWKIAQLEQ

The target in a further test is T30, 4H918-bA.
T30 chain: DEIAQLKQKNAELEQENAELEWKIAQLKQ

The target of a further test is T31, 4H2702-bA.
T31 chain: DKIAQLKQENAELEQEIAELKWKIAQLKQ

A further test deals with T32, 4H3427-bA.
T32 chain: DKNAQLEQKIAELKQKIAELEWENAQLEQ

A further test addresses T33, 4H754-bA.
T33 chain: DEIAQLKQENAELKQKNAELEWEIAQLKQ

The next test deals with T34, 4H780-bA.
T34 chain: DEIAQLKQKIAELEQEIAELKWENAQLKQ

Another test has as its target T35, 4H3601-bH.
T35 chain: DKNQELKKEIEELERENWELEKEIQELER

For the next test, the target named is T36, 4H3907-bH.
T36 chain: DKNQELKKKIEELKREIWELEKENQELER

The next test has as its target T37, 4H797-bH.
T37 chain: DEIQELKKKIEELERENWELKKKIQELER

The next test addresses T38, 4H4038-bH.
T38 chain: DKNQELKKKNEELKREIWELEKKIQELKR

The next test deals with T39, 4H3907-bA.
T39 chain: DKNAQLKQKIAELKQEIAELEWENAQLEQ

A further test addresses T40, 4H4038-bA.
T40 chain: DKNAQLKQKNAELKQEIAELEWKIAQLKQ

The target of a further test is T41, 4H3601-bA.
T41 chain: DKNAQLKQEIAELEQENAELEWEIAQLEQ

For another test, the target named is T42, 4H72-bN.
T42 chain: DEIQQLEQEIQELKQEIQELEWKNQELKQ

The target in the next test is T43, 4H918-bN.
T43 chain: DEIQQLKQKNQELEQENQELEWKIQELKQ

The next test concerns the target T44, 4H908-bN.
T44 chain: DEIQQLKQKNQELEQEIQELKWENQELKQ

A further test deals with T45, 4H883-bN.
T45 chain: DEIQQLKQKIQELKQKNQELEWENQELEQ

For another test, the target named is T46, O13-bP.
T46 chain: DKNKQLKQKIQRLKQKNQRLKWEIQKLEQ

For the next test, the target named is T47, 4H797-bN.
T47 chain: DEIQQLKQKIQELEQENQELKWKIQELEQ

The next test addresses T48, 4H967-bN.
T48 chain: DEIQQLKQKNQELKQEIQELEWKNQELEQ

For a further test, the target named is T49, 4H953-bN.
T49 chain: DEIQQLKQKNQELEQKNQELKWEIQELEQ

A further test addresses T50, 4H754-bN.
T50 chain: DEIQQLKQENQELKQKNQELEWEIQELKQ

Another test deals with T51, 4H932-bA.
T51 chain: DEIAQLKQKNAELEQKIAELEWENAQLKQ

Another test addresses T52, 4H949-bA.
T52 chain: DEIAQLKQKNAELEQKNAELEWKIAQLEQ

B1: 4H3041-bN (peptide)
chain: DKIQQLKQKNQELKQKIQELEWEIQELEQ
As for B1, the interaction score with 4H932-bN is -1.42; with 4H3297-bN, -2.23; in the test with 4H730-bN it was -1.37; with 4H3381-bN, -1.06; with 4H3364-bN, -1.42; with 4H56-bN it was -0.997. Moreover, the interaction score was -1.35 with 4H796-bN; -1.33 in the test with 4H949-bN; 0.154 with P1bHq; 0.754 with 4H3041-bN; -1.54 in the test with 4H349-bN.

B2: 4H1831-bA (peptide)
chain: DENAQLKQKIAELEQKIAELEWKNAQLEQ
Consider B2, for which the interaction score was -0.475 with 4H4073-bA; -0.581 with 4H575-bA; -0.386 with 4H3112-bH; -0.446 with 4H2586-bA; 0.133 with 4H2673-bA; 0.246 in the test with 4H855-bA. Besides, the interaction score with 4H1831-bA was 0.937; in the test with 4H3926-bA it was -0.904; in the test with 4H346-bA, -0.307; in the test with 4H2697-bA, -1.55; with 4H2627-bA, 1.11; with 4H3010-bA, 0.376. Moreover, the interaction score with 4H968-bA is -0.46; with 4H3112-bA it was 0.716; with 4H457-bA, -0.519; in the test with 4H953-bA, -0.824; with 4H683-bA it was -1.5; in the test with 4H797-bA it was -0.44. Also, the interaction score with 4H918-bA is -0.817; with 4H2702-bA, -0.589; with 4H3427-bA, 0.113; in the test with 4H754-bA it was -0.649; with 4H780-bA, -1.1.

B3: 4H3601-bH (peptide)
chain: DKNQELKKEIEELERENWELEKEIQELER
Consider B3, for which the interaction score in the test with 4H3601-bH is -1.34; in the test with 4H3907-bH it was -0.759; with 4H797-bH, -1.38; with 4H4038-bH it was -1.44.

B4: 4H3601-bA (peptide)
chain: DKNAQLKQEIAELEQENAELEWEIAQLEQ
With B4, the values for the interaction score with 4H3907-bA, in the test with 4H4038-bA and with 4H3601-bA were -1.15, -1.28 and -0.859, respectively.

B5: 4H72-bN (peptide)
chain: DEIQQLEQEIQELKQEIQELEWKNQELKQ
B5: the interaction score with 4H72-bN is 0.334; in the test with 4H918-bN, 0.713; with 4H908-bN it was -0.234; with 4H883-bN, 0.619; with O13-bP, -0.283; with 4H797-bN, 0.632. The interaction score was -0.25 with 4H967-bN, -0.727 in the test with 4H953-bN and -1.48 with 4H754-bN.

B6: 4H932-bA (peptide)
chain: DEIAQLKQKNAELEQKIAELEWENAQLKQ
For B6, the interaction score with 4H932-bA was 0.694; in the test with 4H949-bA, -0.925; with P1bHq, -0.886.
